Laboratory results published in patent US20190002404.

Test system: purified, Flag-tagged recombinant PGAM1 (rPGAM1)

Substance | in vitro kinase assay (Y26 phosphorylation) | in vitro kinase assay (tyrosine phosphorylation)
active, recombinant JAK2 (rJAK2) | FGFR1 (FIG. 13B), JAK2 (FIG. 13C) and FLT3 (data not shown) directly phosphorylated PGAM1 at Y26 in vitro | –
active, recombinant FGFR1 (rFGFR1) | FGFR1 (FIG. 13B), JAK2 (FIG. 13C) and FLT3 (data not shown) directly phosphorylated PGAM1 at Y26 in vitro | active, recombinant FGFR1 (rFGFR1) directly phosphorylated purified, Flag-tagged recombinant PGAM1 (rPGAM1) at tyrosine residues
FLT3 | FGFR1 (FIG. 13B), JAK2 (FIG. 13C) and FLT3 (data not shown) directly phosphorylated PGAM1 at Y26 in vitro | –
